Earlier results in paper PMC11346460.

Target: RIG-I (Homo sapiens) (UniProt O95786)
Sequence of UniProt O95786 (O95786 whole entry): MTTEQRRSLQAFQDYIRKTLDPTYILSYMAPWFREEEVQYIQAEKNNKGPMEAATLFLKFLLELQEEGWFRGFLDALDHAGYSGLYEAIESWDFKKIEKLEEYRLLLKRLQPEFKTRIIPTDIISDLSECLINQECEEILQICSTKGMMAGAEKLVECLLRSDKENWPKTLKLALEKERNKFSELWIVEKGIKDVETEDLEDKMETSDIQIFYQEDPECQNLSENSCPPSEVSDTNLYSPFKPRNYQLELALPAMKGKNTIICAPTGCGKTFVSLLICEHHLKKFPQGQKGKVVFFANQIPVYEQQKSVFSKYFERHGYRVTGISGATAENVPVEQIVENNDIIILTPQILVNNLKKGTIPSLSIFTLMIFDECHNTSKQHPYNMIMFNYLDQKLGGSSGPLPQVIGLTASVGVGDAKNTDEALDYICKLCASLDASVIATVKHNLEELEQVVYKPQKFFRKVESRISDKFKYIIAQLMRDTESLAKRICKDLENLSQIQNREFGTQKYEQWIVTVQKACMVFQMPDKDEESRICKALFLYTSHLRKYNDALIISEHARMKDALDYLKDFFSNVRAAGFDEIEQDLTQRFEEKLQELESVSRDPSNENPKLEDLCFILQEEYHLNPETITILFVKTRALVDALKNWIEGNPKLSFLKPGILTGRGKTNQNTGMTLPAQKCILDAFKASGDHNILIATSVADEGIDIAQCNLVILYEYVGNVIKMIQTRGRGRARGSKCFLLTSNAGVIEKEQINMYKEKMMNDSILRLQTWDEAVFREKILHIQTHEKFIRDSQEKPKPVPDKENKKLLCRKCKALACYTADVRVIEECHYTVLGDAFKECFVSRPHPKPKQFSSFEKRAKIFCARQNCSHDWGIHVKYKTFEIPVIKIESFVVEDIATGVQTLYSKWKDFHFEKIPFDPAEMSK

- Kd: 6.6 nM
Substance: RIPLET (from UniProt Q8IUD6)
